In assay [1] the target is T1, PBP1B (Penicillin-binding protein 1B), untagged (E. coli, UniProt P02919 58-804).
T1 sequence: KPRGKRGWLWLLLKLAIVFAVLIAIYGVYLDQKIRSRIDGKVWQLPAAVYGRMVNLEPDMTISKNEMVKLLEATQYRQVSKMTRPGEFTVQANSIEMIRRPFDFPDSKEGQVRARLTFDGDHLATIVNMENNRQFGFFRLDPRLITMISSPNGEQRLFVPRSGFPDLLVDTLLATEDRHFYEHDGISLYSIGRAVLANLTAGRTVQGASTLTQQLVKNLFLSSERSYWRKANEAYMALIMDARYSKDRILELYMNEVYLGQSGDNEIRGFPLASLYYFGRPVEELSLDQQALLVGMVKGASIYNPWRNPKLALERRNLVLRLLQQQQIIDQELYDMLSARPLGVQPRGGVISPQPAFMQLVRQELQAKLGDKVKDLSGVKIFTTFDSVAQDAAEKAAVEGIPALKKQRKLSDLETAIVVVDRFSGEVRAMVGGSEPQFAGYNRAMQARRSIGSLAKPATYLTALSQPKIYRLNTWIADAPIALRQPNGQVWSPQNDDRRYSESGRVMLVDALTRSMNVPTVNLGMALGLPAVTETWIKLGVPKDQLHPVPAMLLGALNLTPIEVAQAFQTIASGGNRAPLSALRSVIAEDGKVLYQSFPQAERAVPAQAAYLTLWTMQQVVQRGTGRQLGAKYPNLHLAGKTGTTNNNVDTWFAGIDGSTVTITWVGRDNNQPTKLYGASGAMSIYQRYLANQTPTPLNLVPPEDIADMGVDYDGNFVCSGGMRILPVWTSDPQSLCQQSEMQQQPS
The experiment in a line: cell-based or functional assay.

The target of assay [2] is T1, PBP1B (Penicillin-binding protein 1B), …. The experiment in a line: SPR; PBP1A or PBP1B covalently immobilised via their TPase active site on a sensor chip with bound ampicillin; PgpB-ht injected at 0.125-2 μM in 10 mM Tris/maleate pH 7.5, 150 mM NaCl, 5 mM imidazole, 5 mM β-mercaptoethanol, 0.05% DDM; 25 °C, 75 μL/min; equilibrium response fitted to a 1:1 model; apparent KD. As to conditions: both partners purified. On the technique in general: Surface plasmon resonance follows binding to a sensor surface in real time, without labels.

B1: PgpB-ht (C-terminal His6-tagged version of PgpB) (enzyme, E. coli)
chain: MRSIARRTAVGAALLLVMPVAVWISGWRWQPGEQSWLLKAAFWVTETVTQPWGVITHLILFGWFLWCLRFRIKAAFVLFAILAAAILVGQGVKSWIKDKVQEPRPFVIWLEKTHHIPVDEFYTLKRAERGNLVKEQLAEEKNIPQYLRSHWQKETGFAFPSGHTMFAASWALLAVGLLWPRRRTLTIAILLVWATGVMGSRLLLGMHWPRDLVVATLISWALVAVATWLAQRICGPLTPPAEENREIAQREQES
notes: PgpB, C55-PP pyrophosphatase (PAP2 family) of E. coli; amplified by PCR from genomic DNA of E. coli BW25113 and cloned into pET28a(+) (pET28a-pgpB); Purified according to Touzé et al., 2008a with modifications; also called oligohistidine tagged PgpB; source: E. coli C43(DE3), membrane fraction solubilised in DDM, purified (Ni-NTA); not shown: His6, C-terminal, kept
In the case of B1, the “lipid II consumption by PBP1B in proteoliposomes of artificial lipids with PgpB at a 1:1 molar ratio, with LpoB(sol), TLC (PBP1B alone: less than 20%)” value in assay [1] is 63%. Moreover, the Kd in assay [2] came out at 1.05 µM.

These data come from PMC6053597, “Coupling of polymerase and carrier lipid phosphatase prevents product inhibition in peptidoglycan synthesis” (The Cell Surface, 2018).
